Several values for one entry are separate records, joined by “and”; a condition that tells them apart may be missing. Equal values may be shown once.

This test has as its system NPR2. Description: cGMP catchpoint assay of NPR2 variants in transfected HEK293 cells treated with 20 nM CNP. It is filed as cell-based. The arrangement: key to Lable: loss-of-function (LoF); Gain-of-function (GoF). The settings on record: for average phenotype: cGMP normalized to RedLuciferase and to WT = 1, HEK293, 20 nM CNP, 0.4 nM IBMX, at least 3 repeat experiments with 4 replicates each; for Lable: high-confidence variant class. As to the method:
Described herein is an in-vitro assay (cGMP) to assess the activities of >260 NPR2 variants. NPR2 protein-altering variants have been identified in the UK Biobank study and described in Estrada et al. (Nat Commun. 2021 12 (1): 2224). NPR2-expression constructs were transfected into HEK293 cells and 3 days later cells were treated with […] IBMX and 20 nM CNP in serum-free DMEM prior to measuring cGMP levels. The cGMP catchpoint ELISA competition assay (Molecular Devices) was used to measure cGMP according to manufacturer recommendations. RedLuc was used as a transfection control (FIG. 8A).
The NPR2 alpha-fold structure was obtained from a recent alpha-fold publication (Jumper et al., Nature 596:583-589 (2021)). A list of phenotypically characterized “high-confidence” variants was generated (Table 4). Phenotype is calculated by determining levels of cGMP using a standard curve. This value to normalized to RedLuciferase (transfection control). This value is further normalized by setting WT to 1. Average value is calculated from at least 3 repeat experiments with 4 replicates each.

B1: Arg601Ser: NPR2 protein-altering variant, expression construct transfected into HEK293 cells (protein)
chain: RNLTLAVVLPEHNLSYAWAWPRVGPAVALAVEALGRALPVDLRFVSSELEGACSEYLAPLSAVDLKLYHDPDLLLGPGCVYPAASVARFASHWRLPLLTAGAVASGFSAKNDHYRTLVRTGPSAPKLGEFVVTLHGHFNWTARAALLYLDARTDDRPHYFTIEGVFEALQGSNLSVQHQVYAREPGGPEQATHFIRANGRIVYICGPLEMLHEILLQAQRENLTNGDYVFFYLDVFGESLRAGPTRATGRPWQDNRTREQAQALREAFQTVLVITYREPPNPEYQEFQNRLLIRAREDFGVELGPSLMNLIAGCFYDGILLYAEVLNETIQEGGTREDGLRIVEKMQGRRYHGVTGLVVMDKNNDRETDFVLWAMGDLDSGDFQPAAHYSGAEKQIWWTGRPIPWVKGAPPSDNPPCAFDLDDPSCDKTPLSTLAIVALGTGITFIMFGVSSFLIFRKLMLEKELASMLWRIRWEELQFGNSERYHKGAGSRLTLSLRGSSYGSLMTAHGKYQIFANTGHFKGNVVAIKHVNKKRIELTRQVLFELKHMRDVQFNHLTRFIGACIDPPNICIVTEYCPSGSLQDILENDSINLDWMFRYSLINDLVKGMAFLHNSIISSHGSLKSSNCVVDSRFVLKITDYGLASFRSTAEPDDSHALYAKKLWTAPELLSGNPLPTTGMQKADVYSFGIILQEIALRSGPFYLEGLDLSPKEIVQKVRNGQRPYFRPSIDRTQLNEELVLLMERCWAQDPAERPDFGQIKGFIRRFNKEGGTSILDNLLLRMEQYANNLEKLVEERTQAYLEEKRKAEALLYQILPHSVAEQLKRGETVQAEAFDSVTIYFSDIVGFTALSAESTPMQVVTLLNDLYTCFDAIIDNFDVYKVETIGDAYMVVSGLPGRNGQRHAPEIARMALALLDAVSSFRIRHRPHDQLRLRIGVHTGPVCAGVVGLKMPRYCLFGDTVNTASRMESNGQALKIHVSSTTKDALDELGCFQLELRGDVEMKGKGKMRTYWLLGERKGPPGLL
Turning to B1, the average phenotype is on record as 0.05949 and the Lable entry is given as “LoF”.

B2: Thr861Ile: NPR2 protein-altering variant, expression construct transfected into HEK293 cells (protein)
chain: RNLTLAVVLPEHNLSYAWAWPRVGPAVALAVEALGRALPVDLRFVSSELEGACSEYLAPLSAVDLKLYHDPDLLLGPGCVYPAASVARFASHWRLPLLTAGAVASGFSAKNDHYRTLVRTGPSAPKLGEFVVTLHGHFNWTARAALLYLDARTDDRPHYFTIEGVFEALQGSNLSVQHQVYAREPGGPEQATHFIRANGRIVYICGPLEMLHEILLQAQRENLTNGDYVFFYLDVFGESLRAGPTRATGRPWQDNRTREQAQALREAFQTVLVITYREPPNPEYQEFQNRLLIRAREDFGVELGPSLMNLIAGCFYDGILLYAEVLNETIQEGGTREDGLRIVEKMQGRRYHGVTGLVVMDKNNDRETDFVLWAMGDLDSGDFQPAAHYSGAEKQIWWTGRPIPWVKGAPPSDNPPCAFDLDDPSCDKTPLSTLAIVALGTGITFIMFGVSSFLIFRKLMLEKELASMLWRIRWEELQFGNSERYHKGAGSRLTLSLRGSSYGSLMTAHGKYQIFANTGHFKGNVVAIKHVNKKRIELTRQVLFELKHMRDVQFNHLTRFIGACIDPPNICIVTEYCPRGSLQDILENDSINLDWMFRYSLINDLVKGMAFLHNSIISSHGSLKSSNCVVDSRFVLKITDYGLASFRSTAEPDDSHALYAKKLWTAPELLSGNPLPTTGMQKADVYSFGIILQEIALRSGPFYLEGLDLSPKEIVQKVRNGQRPYFRPSIDRTQLNEELVLLMERCWAQDPAERPDFGQIKGFIRRFNKEGGTSILDNLLLRMEQYANNLEKLVEERTQAYLEEKRKAEALLYQILPHSVAEQLKRGETVQAEAFDSVIIYFSDIVGFTALSAESTPMQVVTLLNDLYTCFDAIIDNFDVYKVETIGDAYMVVSGLPGRNGQRHAPEIARMALALLDAVSSFRIRHRPHDQLRLRIGVHTGPVCAGVVGLKMPRYCLFGDTVNTASRMESNGQALKIHVSSTTKDALDELGCFQLELRGDVEMKGKGKMRTYWLLGERKGPPGLL
Take B2: the average phenotype was 0.07978 and 0.01124; the Lable result was “LoF”.

B3: Ala48Ser: NPR2 protein-altering variant, expression construct transfected into HEK293 cells (protein)
chain: RNLTLAVVLPEHNLSYAWAWPRVGPSVALAVEALGRALPVDLRFVSSELEGACSEYLAPLSAVDLKLYHDPDLLLGPGCVYPAASVARFASHWRLPLLTAGAVASGFSAKNDHYRTLVRTGPSAPKLGEFVVTLHGHFNWTARAALLYLDARTDDRPHYFTIEGVFEALQGSNLSVQHQVYAREPGGPEQATHFIRANGRIVYICGPLEMLHEILLQAQRENLTNGDYVFFYLDVFGESLRAGPTRATGRPWQDNRTREQAQALREAFQTVLVITYREPPNPEYQEFQNRLLIRAREDFGVELGPSLMNLIAGCFYDGILLYAEVLNETIQEGGTREDGLRIVEKMQGRRYHGVTGLVVMDKNNDRETDFVLWAMGDLDSGDFQPAAHYSGAEKQIWWTGRPIPWVKGAPPSDNPPCAFDLDDPSCDKTPLSTLAIVALGTGITFIMFGVSSFLIFRKLMLEKELASMLWRIRWEELQFGNSERYHKGAGSRLTLSLRGSSYGSLMTAHGKYQIFANTGHFKGNVVAIKHVNKKRIELTRQVLFELKHMRDVQFNHLTRFIGACIDPPNICIVTEYCPRGSLQDILENDSINLDWMFRYSLINDLVKGMAFLHNSIISSHGSLKSSNCVVDSRFVLKITDYGLASFRSTAEPDDSHALYAKKLWTAPELLSGNPLPTTGMQKADVYSFGIILQEIALRSGPFYLEGLDLSPKEIVQKVRNGQRPYFRPSIDRTQLNEELVLLMERCWAQDPAERPDFGQIKGFIRRFNKEGGTSILDNLLLRMEQYANNLEKLVEERTQAYLEEKRKAEALLYQILPHSVAEQLKRGETVQAEAFDSVTIYFSDIVGFTALSAESTPMQVVTLLNDLYTCFDAIIDNFDVYKVETIGDAYMVVSGLPGRNGQRHAPEIARMALALLDAVSSFRIRHRPHDQLRLRIGVHTGPVCAGVVGLKMPRYCLFGDTVNTASRMESNGQALKIHVSSTTKDALDELGCFQLELRGDVEMKGKGKMRTYWLLGERKGPPGLL
As to B3, the average phenotype worked out at 0.06785 and the Lable entry was “LoF”.

B4: Leu1009Val: NPR2 protein-altering variant, expression construct transfected into HEK293 cells (protein)
chain: RNLTLAVVLPEHNLSYAWAWPRVGPAVALAVEALGRALPVDLRFVSSELEGACSEYLAPLSAVDLKLYHDPDLLLGPGCVYPAASVARFASHWRLPLLTAGAVASGFSAKNDHYRTLVRTGPSAPKLGEFVVTLHGHFNWTARAALLYLDARTDDRPHYFTIEGVFEALQGSNLSVQHQVYAREPGGPEQATHFIRANGRIVYICGPLEMLHEILLQAQRENLTNGDYVFFYLDVFGESLRAGPTRATGRPWQDNRTREQAQALREAFQTVLVITYREPPNPEYQEFQNRLLIRAREDFGVELGPSLMNLIAGCFYDGILLYAEVLNETIQEGGTREDGLRIVEKMQGRRYHGVTGLVVMDKNNDRETDFVLWAMGDLDSGDFQPAAHYSGAEKQIWWTGRPIPWVKGAPPSDNPPCAFDLDDPSCDKTPLSTLAIVALGTGITFIMFGVSSFLIFRKLMLEKELASMLWRIRWEELQFGNSERYHKGAGSRLTLSLRGSSYGSLMTAHGKYQIFANTGHFKGNVVAIKHVNKKRIELTRQVLFELKHMRDVQFNHLTRFIGACIDPPNICIVTEYCPRGSLQDILENDSINLDWMFRYSLINDLVKGMAFLHNSIISSHGSLKSSNCVVDSRFVLKITDYGLASFRSTAEPDDSHALYAKKLWTAPELLSGNPLPTTGMQKADVYSFGIILQEIALRSGPFYLEGLDLSPKEIVQKVRNGQRPYFRPSIDRTQLNEELVLLMERCWAQDPAERPDFGQIKGFIRRFNKEGGTSILDNLLLRMEQYANNLEKLVEERTQAYLEEKRKAEALLYQILPHSVAEQLKRGETVQAEAFDSVTIYFSDIVGFTALSAESTPMQVVTLLNDLYTCFDAIIDNFDVYKVETIGDAYMVVSGLPGRNGQRHAPEIARMALALLDAVSSFRIRHRPHDQLRLRIGVHTGPVCAGVVGLKMPRYCLFGDTVNTASRMESNGQALKIHVSSTTKDAVDELGCFQLELRGDVEMKGKGKMRTYWLLGERKGPPGLL
As for B4, the average phenotype was found to be 0.0847 and the Lable entry was “LoF”.

B5: Glu389Asp: NPR2 protein-altering variant, expression construct transfected into HEK293 cells (protein)
chain: RNLTLAVVLPEHNLSYAWAWPRVGPAVALAVEALGRALPVDLRFVSSELEGACSEYLAPLSAVDLKLYHDPDLLLGPGCVYPAASVARFASHWRLPLLTAGAVASGFSAKNDHYRTLVRTGPSAPKLGEFVVTLHGHFNWTARAALLYLDARTDDRPHYFTIEGVFEALQGSNLSVQHQVYAREPGGPEQATHFIRANGRIVYICGPLEMLHEILLQAQRENLTNGDYVFFYLDVFGESLRAGPTRATGRPWQDNRTREQAQALREAFQTVLVITYREPPNPEYQEFQNRLLIRAREDFGVELGPSLMNLIAGCFYDGILLYAEVLNETIQEGGTREDGLRIVEKMQGRRYHGVTGLVVMDKNNDRDTDFVLWAMGDLDSGDFQPAAHYSGAEKQIWWTGRPIPWVKGAPPSDNPPCAFDLDDPSCDKTPLSTLAIVALGTGITFIMFGVSSFLIFRKLMLEKELASMLWRIRWEELQFGNSERYHKGAGSRLTLSLRGSSYGSLMTAHGKYQIFANTGHFKGNVVAIKHVNKKRIELTRQVLFELKHMRDVQFNHLTRFIGACIDPPNICIVTEYCPRGSLQDILENDSINLDWMFRYSLINDLVKGMAFLHNSIISSHGSLKSSNCVVDSRFVLKITDYGLASFRSTAEPDDSHALYAKKLWTAPELLSGNPLPTTGMQKADVYSFGIILQEIALRSGPFYLEGLDLSPKEIVQKVRNGQRPYFRPSIDRTQLNEELVLLMERCWAQDPAERPDFGQIKGFIRRFNKEGGTSILDNLLLRMEQYANNLEKLVEERTQAYLEEKRKAEALLYQILPHSVAEQLKRGETVQAEAFDSVTIYFSDIVGFTALSAESTPMQVVTLLNDLYTCFDAIIDNFDVYKVETIGDAYMVVSGLPGRNGQRHAPEIARMALALLDAVSSFRIRHRPHDQLRLRIGVHTGPVCAGVVGLKMPRYCLFGDTVNTASRMESNGQALKIHVSSTTKDALDELGCFQLELRGDVEMKGKGKMRTYWLLGERKGPPGLL
For B5, the average phenotype is 0.07079 and the Lable entry is recorded as “LoF”.

(Values after patent US20250032576A1, “CNP Therapy” (BIOMARIN PHARMACEUTICAL INC., priority 2021, published 2025).)
